Measurements: patent US20220073618A1 (NANJING GENSCRIPT BIOTECH, published 2022)

Assays:
[1] = target: T1, human PD-L1 protein (human, UniProt Q9NZQ7 19-238, limits assumed); assay: ELISA on human PD-L1 protein; antibody treated for 20 min (all overlapping curves, including the -80 C control)
Experimental: (§1) The antibody samples were treated for 20 min at various temperature gradients respectively, and then centrifuged to remove the pellet. Then the amount of remaining antibody was evaluated by ELISA. (The temperature gradient includes: room temperature, 30° C., 40° C., 50° C., 60° C., 70° C., […]) (FIG. 4)

[2] = target: T2, PD-L1-HIS recombinant protein (human, UniProt Q9NZQ7 19-238, limits assumed); assay: SPR (Biacore 8K), antibody captured on chip, PD-L1-HIS analyte 2.5-80 nM, 1:1 binding model
T2 construct: not shown: His tag
T2 sequence (Q9NZQ7 19-238 limits assumed): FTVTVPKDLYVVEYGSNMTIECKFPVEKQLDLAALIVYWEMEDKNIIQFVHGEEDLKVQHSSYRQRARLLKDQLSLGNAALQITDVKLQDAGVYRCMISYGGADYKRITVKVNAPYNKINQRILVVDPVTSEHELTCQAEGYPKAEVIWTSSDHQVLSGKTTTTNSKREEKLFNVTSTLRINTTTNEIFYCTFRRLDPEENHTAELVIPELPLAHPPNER
Experimental: The chip surface was equilibrated with HBS-EP buffer at a flow rate of 10 μl/min for 5 min, and then a 1:1 mixture of “NHS+EDC” was injected at a flow rate of 10 μl/min for 420 sec to activate the chip. The capture antibody (goat anti-murine IgG) diluted in 10 mM sodium acetate buffer was injected for about 420 sec at a flow rate of 10 μl/min for coupling, and finally ethanolamine was injected for 420 sec at a flow rate of 10 μl/min to block the surface.
Three pre-cycles were performed with the HBS-EP buffer as a sample to balance the chip to stabilize the baseline. The antibody diluted in HBS-EP buffer was injected for 30 sec at a flow rate of 10 μl/min (where the antibody-antigen binding signal was controlled to about 100 RU by adjusting the capture time between 0-5 min), and then the chip was equilibrated with the buffer for 1 min. The low-concentration antigen 2.5 nM PD-L1-HIS was injected at a flow rate of 30 μl/min for 240/300 seconds, to allow the antigen to bind to the antibody, and then the buffer was injected at a flow rate of 30 μl/min for 720/600 seconds for dissociation. 50 mM HCl were injected three times each for 15 s at a flow rate of 100 μl/min for regeneration, to complete one cycle. The antigen concentration was changed (such as 5 nM PD-L1-HIS) to carry out the cycle for measurement at a next gradient concentration until all gradient concentrations (2.5 nM, 5 nM, 10 nM, 20 nM, 40 nM, 80 nM PD-L1-HIS) and the replicate (such as 10 nM PD-L1-HIS) were tested.
The experimental data was double subtracted (minus the background values of the control channel and zero concentration), and fitted to the “1:1 binding” model in the Biacore 8K evaluation software. Biacore 8K was used to determine the affinity of the antibody to the PD-L1-HIS recombinant protein.

[3] = target: T1, human PD-L1 protein; assay: ELISA on the antigen (human PD-L1); antibody untreated (0), after oxidative stress (AAPH, 24 h) or deamidation stress (pH 9.0, 48 h)
[4] = target: T3, human PD-L1 on cell surface (human, UniProt Q9NZQ7 19-290); assay: cell-based or functional assay
T3 sequence (Q9NZQ7 19-290): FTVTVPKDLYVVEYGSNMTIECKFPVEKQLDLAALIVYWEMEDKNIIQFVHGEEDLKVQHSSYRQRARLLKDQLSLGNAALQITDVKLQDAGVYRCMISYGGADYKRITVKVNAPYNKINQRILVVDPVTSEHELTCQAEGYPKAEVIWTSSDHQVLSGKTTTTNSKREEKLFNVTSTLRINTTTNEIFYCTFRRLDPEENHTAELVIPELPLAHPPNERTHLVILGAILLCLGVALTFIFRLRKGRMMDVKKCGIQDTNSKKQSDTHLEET

[5] = target: T1, human PD-L1 protein; assay: ELISA on human PD-L1 protein; untreated antibody (D0) and antibody after 7 days at 40 C (D7)
Experimental: (§2) The antibody samples were treated separately at 40° C., and then centrifuged to remove the pellet. Then the amount of remaining antibody was evaluated by ELISA. (test after treatment at 40° C. for 7 days (D7) and 14 days (D14) separately; for each test, the untreated sample (D0) stored at −80° C. is used as a control) (FIG. 3)

[6] = target: T1, human PD-L1 protein; assay: ELISA on human PD-L1 protein; antibody after 14 days at 40 C (D14)
Experimental: as §2

[7] = target: T1, human PD-L1 protein; assay: ELISA on human PD-L1 protein; antibody treated for 20 min at 70 C
Experimental: as §1

[8] = target: T1, human PD-L1 protein; assay: ELISA on the antigen (human PD-L1); antibody untreated (0), after oxidative stress (AAPH, 24 h) or deamidation stress (pH 9.0, 48 h); curves not told apart
[9] = target: T1, human PD-L1 protein; assay: ELISA on human PD-L1 protein; antibody treated for 20 min at room temperature to 70 C and -80 C control (curves not told apart)
Experimental: as §1

[10] = target: T4, monkey PD-L1 on cell surface (monkey); assay: flow cytometry on CHO cells expressing monkey PD-L1, fitted curve
T4 construct: whole, on cells; also called monkey PD-L1 cell line; CHO cells overexpressing monkey PD-L1
Experimental: (§3) CHO cells expressing human or monkey PD-L1 and parent cells as a negative control were washed 3 times with PBS. 2.5×10⁵ detection cells and 100 μl of 3-fold serial dilutions of purified antibody with an initial concentration of 300 nM were added to a 96-well plate and incubated at 4° C. for 1 hr. […] Finally, the cells were washed 3 times with PBS, and the signal was read on FACS BD Calibur.
Moreover, CHO cells overexpressing monkey PD-L1 were used to test the cross-recognition binding to monkey PD-L1 by the antibodies.

[11] = target: T1, human PD-L1 protein; assay: ELISA on human PD-L1 protein; antibody kept at 40 C for 0 (D0), 7 (D7) or 14 (D14) days
Experimental: as §2

[12] = target: T5, biotin-labeled PD-L1-Fc (human, UniProt Q9NZQ7 19-238, limits assumed, biotin-labeled (sites not given)); assay: flow cytometry: biotin-PD-L1-Fc binding to CHO cells expressing human PD-1 with titrated antibody; enhancement of PD-L1/PD-1 binding
T5 construct: not shown: Fc part
T5 sequence (Q9NZQ7 19-238 limits assumed): as the sequence (Q9NZQ7 19-238 limits assumed) above
Experimental: (§4) In the FACS test, CHO cells expressing human PD-1 and parent cells as a negative control were washed 3 times with PBS. 2.5×10⁵ detection cells and 50 μl of 3-fold serial dilutions of purified antibody with an initial concentration of 300 nM were added to a 96-well plate. […] Then the cells were washed 3 times with PBS, 100 μl of iFluor647-labeled streptavidin (1 μg/ml) was added, and the cells were incubated at 4° C. for 45 min. Finally, the cells were washed 3 times with PBS, and the signal was read on FACS BD Calibur.

[13] = target: T5, biotin-labeled PD-L1-Fc; assay: ELISA: biotin-PD-L1-Fc binding to coated human PD-1 with titrated antibody; enhancement of PD-L1/PD-1 binding
Experimental: (§5) The ELISA plate (Nunc) was coated with 100 μl/well of 0.5 μg/ml recombinant human PD-1 protein in PBS at 4° C. overnight. The plate was washed with PBS-T (0.05% Tween), and blocked with 200 μl/well of PBST containing 1% BSA at 37° C. for 0.5 hr. Then the blocking buffer was discarded, and 50 μl of 10 μg/ml purified antibody to be tested was added to the first test well. 3-fold serial dilutions were made, and a total of 11 test concentration gradients were given. […] The plate was washed 3 times with PBST, and incubated with 100 μl/well of Streptavidin-HRP (SA-HRP, GenScript) at 37° C. for 10 min. Finally, the plate was washed 5 times with PBST, and then a TMB developing solution (GenScript) was added and incubated at room temperature for 15 min in the dark. The reaction was terminated by adding 50 μl of 1M HCl stop solution (Sigma). The plate was read at 450 nm on a microplate reader.

[14] = target: T3, human PD-L1 on cell surface; assay: flow cytometry on CHO cells expressing human PD-L1, fitted curve
Experimental: as §3

[15] = target: T1, human PD-L1 protein; assay: ELISA on the antigen (human PD-L1); antibody untreated (0), after oxidative stress (AAPH, 24 h) or deamidation stress (pH 9.0, 48 h); remark: listed apart in the source
[16] = target: T5, biotin-labeled PD-L1-Fc; assay: flow cytometry: biotin-PD-L1-Fc binding to CHO cells expressing human PD-1 with titrated antibody, fitted curve; enhancement
Experimental: as §4

[17] = target: T5, biotin-labeled PD-L1-Fc; assay: ELISA: biotin-PD-L1-Fc binding to coated human PD-1 with titrated antibody, OD 450 nm, fitted curve; enhancement
Experimental: as §5

T1 sequence (Q9NZQ7 19-238 limits assumed): as above

| Kd [2] | koff [2] | kon [2] | Bottom (best-fit value) of IL-2 release, mixed lymphocyte reaction [4] | EC50 (µg/ml) of IL-2 release, mixed lymphocyte reaction [4] | LogEC50 (best-fit value) of IL-2 release, mixed lymphocyte reaction [4] | Span (best-fit value) of IL-2 release, mixed lymphocyte reaction [4] | Top (best-fit value) of IL-2 release, mixed lymphocyte reaction [4] | EC50 (read off the curve) [5] | EC50 (read off the curve) [6] | EC50 (read off the curve) [9] | further results | Binder |
| --- | --- | --- | --- | --- | --- | --- | --- | --- | --- | --- | --- | --- |
| 0.82 nM | 0.000152 s⁻¹ | 185000 M⁻¹ s⁻¹ | 1140 | 0.0311 µg/mL | -1.51 | 950 | 2090 | ~0.01 µg/mL | ~0.02 µg/mL | – | EC50 (read off the curve) [1]: ~0.01 µg/mL; EC50 (read off the curve) [3]: ~0.01 µg/mL; EC50 (read off the curve) [7]: ~0.03 µg/mL | AH01950 (antibody, human IgG1, V domains shown, also called mPD-L1Ab-CBM clone AH01950) VH: QVQLQESGPGLVKPSQTLSLTCTVSGYSITSGYTWHWIRQHPGKGLEWIGYIHYSGSTKYNPSLKSRVTISRDTSKNQFSLKLSSVTAADTAVYYCARNSLFASWGQGTLVTVSS VL: DIVLTQSPDSLAVSLGERATINCRASESVDTYGDSFMHWFQQKPGQPPKLLIYRASNLESGVPDRFSGSGSGTDFTLTISSLQAEDVAVYYCQQSNEAPYTFGGGTKLEIK |
| 1.27 nM | 0.000274 s⁻¹ | 216000 M⁻¹ s⁻¹ | 1420 | 0.0406 µg/mL | -1.39 | 930 | 2350 | ~0.01 µg/mL | ~0.02 µg/mL | ~0.01 µg/mL | EC50 (read off the curve) [8]: ~0.02 µg/mL | AH01963 (antibody, human IgG1, V domains shown, also called mPD-L1Ab-CBM clone AH01963) VH: QVQLQESGPGLVKPSQTLSLTCTVSGYSITSGYTWHWIRQHPGKGLEWIGYIHYSGSTKYNPSLKSRVTISRDTSKNQFSLKLSSVTAADTAVYYCARNSLFASWGQGTLVTVSS VL: DIVLTQSPDSLAVSLGERATINCRASESVDTYGDSFMHWYQQKPGQPPKLLIYRASNLESGVPDRFSGSGSGTDFTLTISSVQAEDVAVYYCQQSNEAPYTFGGGTKLEIK |
| 0.835 nM | 0.000155 s⁻¹ | 186000 M⁻¹ s⁻¹ | 1170 | 0.0295 µg/mL | -1.53 | 866 | 2030 | – | – | ~0.01 µg/mL | EC50 [10]: 3.29 nM; LogEC50 [10]: 0.518; EC50 (read off the curve) [11]: ~0.01 µg/mL; EC50 [12]: 28.1 nM; EC50 [13]: 0.0219 µg/mL; EC50 [14]: 0.501 nM; LogEC50 [14]: -0.3; EC50 (read off the curve) [15]: ~0.01 µg/mL; LogEC50 [16]: 1.45; LogEC50 [17]: 1.34 | AH01946 (antibody, human IgG1, V domains shown, also called mPD-L1Ab-CBM clone AH01946) VH: QVQLQESGPGLVKPSQTLSLTCTVSGYSITSGYTWHWIRQHPGKGLEWIGYIHYSGSTKYNPSLKSRVTISRDTSKNQFSLKLSSMTAADTAVYYCARNSLFASWGQGTLVTVSS VL: DIVLTQSPDSLAVSLGERATINCRASESVDTYGDSFMHWFQQKPGQPPKLLIYRASNLESGVPDRFSGSGSGTDFTLTISSVQAEDVAVYYCQQSNEAPYTFGGGTKLEIK |
